Data: PMC7347935, “STK11 (LKB1) missense somatic mutant isoforms promote tumor growth, motility and inflammation” (Communications Biology, 2020)

Biological target: T1, LKB1^Y49D (human, UniProt Q15831 1-433, Y49D)
T1 sequence (looked up): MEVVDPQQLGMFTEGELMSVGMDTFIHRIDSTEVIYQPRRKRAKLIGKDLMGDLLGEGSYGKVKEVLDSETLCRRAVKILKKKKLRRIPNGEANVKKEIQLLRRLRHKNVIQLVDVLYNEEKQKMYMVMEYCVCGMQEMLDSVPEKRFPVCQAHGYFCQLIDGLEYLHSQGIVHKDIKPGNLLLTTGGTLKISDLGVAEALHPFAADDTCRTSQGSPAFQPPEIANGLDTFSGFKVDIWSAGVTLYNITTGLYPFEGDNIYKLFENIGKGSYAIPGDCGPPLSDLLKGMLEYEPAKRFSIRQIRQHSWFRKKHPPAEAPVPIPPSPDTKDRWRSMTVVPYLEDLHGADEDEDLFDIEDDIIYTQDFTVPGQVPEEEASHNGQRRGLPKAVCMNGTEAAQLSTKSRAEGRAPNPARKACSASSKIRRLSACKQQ
Assay: cell-based or functional assay

B1: STRADα (natural protein, human (endogenous in A549 and G361), UniProt Q7RTN6 1-431, looked up)
chain: MSFLVSKPERIRRWVSEKFIVEGLRDLELFGEQPPGDTRRKTNDASSESIASFSKQEVMSSFLPEGGCYELLTVIGKGFEDLMTVNLARYKPTGEYVTVRRINLEACSNEMVTFLQGELHVSKLFNHPNIVPYRATFIADNELWVVTSFMAYGSAKDLICTHFMDGMNELAIAYILQGVLKALDYIHHMGYVHRSVKASHILISVDGKVYLSGLRSNLSMISHGQRQRVVHDFPKYSVKVLPWLSPEVLQQNLQGYDAKSDIYSVGITACELANGHVPFKDMPATQMLLEKLNGTVPCLLDTSTIPAEELTMSPSRSVANSGLSDSLTTSTPRPSNGDSPSHPYHRTFSPHFHHFVEQCLQRNPDARPSASTLLNHSFFKQIKRRASEALPELLRPVTPITNFEGSQSQDHSGIFGLVTNLEELEVDDWEF
  specific in vitro kinase activity towards NUAKtide peptide in the presence of STRADα, relative to LKB1^WT: ~30 % of LKB1^WT activity
